B1: 34D1_21B3 (antibody, V domains shown)
VH: QGQLVESGGGVVQPGRSLRLSCAASGFTFSSYTLHWVRQAPGKGLEWVAVIWYDGSNKYYVDSVKGRFTISRDNSKNTLYLQMNSLRAEDTAVYYCAREYGSGSYYNVYYGMDVWGQGTTVTVSS
VL: DIVMTQSPLSLPVTPGEPASISCRSSQSLLHSNGYKYLDWYLQKAGQSPHLLIYLGSNRASGVPDRFSGSGSGTDFTLKISRVEAEDVGFYYCMQTLQIPLTFGGGTKLEIK
notes: Recombinant human antibody
B2: 39A9_28A4 (antibody, V domains shown)
VH: QVQLVESGGGVVQPGRSLRLSCAASGFTLSGYGMHWVRQAPGKGLEWVAVIWYDGSNKYYADSVKGRFTISRDNSKNMLFLQMNSLRAEDTAVYYCVRENGFGSGWFFDYWGQGNLVTVSS
VL: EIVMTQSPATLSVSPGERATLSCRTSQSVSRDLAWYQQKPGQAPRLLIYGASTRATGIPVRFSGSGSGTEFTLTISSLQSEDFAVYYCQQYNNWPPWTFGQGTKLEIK
notes: Recombinant human antibody
B3: 32C12-N26S (antibody, V domains shown)
VH: QVQLVESGGGVVQPGRSLRLSCAASGFTFRNYGIHWVRQAPGKGLEWVAVIWYDGSNKFYADSVKGRFTISRDNSKNTLYLQMNSLRVEDTAVYYCAREEGIAVAPFDYWGQGTLVTVSS
VL: DIQMTQSPSSLSASVGDRVAITCRASQSIASYLNWYQQKPGKAPKLLIYGASSLQNGVPSRFSGSGSRTDFTLTISSLQPEDFATYYCQQSYSTEITFGQGTRLEIK
notes: Asn26Ser (VL CDR1) variant of 32C12_21A4
B4: 41G4_15B6 (antibody, V domains shown)
VH: B3 VH with I34M
VL: B3 VL with S26N
notes: Recombinant human antibody
B5: 33H2_21B1 (antibody, V domains shown)
VH: EVQVVESGGGLVQPGGSLRLSCATSGFTFRSYWMTWVRQAPGKGLEWVANIKQDGSERHYVDSVKGRFTISRDNAKTSLYLQMSSLRAEDTAMYYCAREGYYGSGYFDYWGQGTLVTVSS
VL: DIQMTQSPSTLSASVGDRVIITCRASQSISRGLAWYQQKPGKAPKLLIYKASNLESGVPSRFSGSGSGTEFTLTISSLQPDDFAAYYCQQYSYYSHTFGQGTKVEIK
notes: Recombinant human antibody
B6: 36A12_21C1 (antibody, V domains shown)
VH: EVQLVESGGGLVQPGGSLRLSCAASGFTLSFYWMTWVRQAPGKGLEWVANIKQDGNEKNYVDSVKGRFTISKDNAKKSVFLQMNSLRAEDTAVYYCAREGYFGSGYFDYWGQGTLVTVSS
VL: B5 VL with I20T, S30N, R31S, G32W, N53T, A85P, Q90H, S92N, Y93S, S95P
notes: Recombinant human antibody
B7: 40C3_22B6 (antibody, V domains shown)
VH: B6 VH with Y60F, K72R
VL: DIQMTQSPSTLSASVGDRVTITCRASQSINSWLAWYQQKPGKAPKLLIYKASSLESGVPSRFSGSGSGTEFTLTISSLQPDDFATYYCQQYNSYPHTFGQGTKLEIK
notes: Recombinant human antibody
B8: 34C11_21B2 (antibody, V domains shown)
VH: B5 VH with T24A, T35S, M93V, Y102F
VL: B5 VL with V104L
notes: Recombinant human antibody
B9: 17E9_15B1 (antibody, V domains shown)
VH: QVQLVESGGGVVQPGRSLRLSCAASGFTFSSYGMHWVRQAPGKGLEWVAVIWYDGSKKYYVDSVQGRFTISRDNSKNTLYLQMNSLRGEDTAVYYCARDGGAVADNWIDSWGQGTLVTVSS
VL: DIQMTQSPSSLSASVGDRVTLTCRASQNIRSYLNWYQQKPGKAPKLLIFAASSLPSGVPSRFSGSGSVTDFTLTVSSLQPEDFATYSCQQSYSTPYTFGQGTKLEIK
notes: Recombinant human antibody
B10: 16H2_17D1 (antibody, V domains shown)
VH: EVQLLESGADLVQPGGSLRLSCAASGFTFSSYAMSWVRQAPGKGLEWVSTIRISGGTTYYADSVKGRFTISRDNSKNTLYLQMNSLRAEDTAVYYCVRDYYNGMDVWGQGTTVTVSS
VL: EIVLTQSPATLSLSPGERATLSCRASQRVSSYLAWYQQKPGQAPRLLIYDASNRATGIPARFSGSGSGTDFTLTISSLEPEDFAVYYCQQRSYWPPAFGQGTKLEIK
notes: Recombinant human antibody
B11: 26C5_15B4 (antibody, V domains shown)
VH: B10 VH with V2A, A9G, D10G, R52S, I53G, T57S, Y59H, N102Y
VL: B10 VL with R28S, A97T
notes: Recombinant human antibody
B12: 10C8-15A4 (antibody, V domains shown)
VH: B10 VH with V2E, V12A, G56D, Y80F, Q109H
VL: B10 VL
notes: Recombinant human antibody
B13: 10C8_C43A (antibody, V domains shown)
VH: QVQLVESGGGVVQPGRSLRISCAASGFTFRSYGMHWVRQAPGKGLEWVAIIWHDESYKYYVDSVKGRFTISRDNSKNTLYLQMNSLRAEDTAVYYCARGDYYGSGSYYDAFDIWGQGTMVTVSS
VL: DIQMTQSPSSLSASVGDRVIITCRASQGISNYLAWFQQKPGKAPNLLIYAASTLRSGVPSRFSGSGSGTDFTLTISSLQPEDVATYYCQKYNSAPYTFGQGTKVEIK
notes: Cys43Ala variant of 10C8_15A1
B14: 32F9_21A5 (antibody, V domains shown)
VH: QLQLVESGGGVVQPGRSLRLSCAASGFTFSSHGMHWVRQAPGKGLEWVAVIWYDGSSEYYADSVKGRFTISRDNSKNTLYLQMNSLRAEDTAVYYCARENVYGSGWFFDYWGQGSLVTVSS
VL: EIVMTQSPATLSVSPGERASLSCRASQSVGSNLAWYQQKPGQAPRLLIFGASTRATGIPARFSGSRSGTEFTLTISSLQSEDFALYYCQQYNNWPPWTFGQGTKLEIK
notes: Recombinant human antibody
B15: 31F9_21A1 (antibody, V domains shown)
VH: B14 VH with L2V, V11M, A23T, Y53F, S57N, A61V, S115T
VL: B14 VL with L105V
notes: Recombinant human antibody
B16: 35D11_22A1 (antibody, V domains shown)
VH: B14 VH with H32Y, Y80F, E89D, S115T
VL: B14 VL with N92D
notes: Recombinant human antibody
B17: 32D4_21D6 (antibody, V domains shown)
VH: B14 VH with H32Y, S115T
VL: B14 VL with L105V
notes: Recombinant human antibody
B18: 33E9_21A6 (antibody, V domains shown)
VH: B14 VH with P14F, S115T
VL: B14 VL
notes: Recombinant human antibody
B19: 5D12_C108Y (antibody, V domains shown)
VH: QVQLQESGPGLVKPLGTLSLTCAVSGGSISNSNWWSWVRQPPGKGLEWIGEIYHSGSTNYNPSLKSRVTIALDWSKNQFSLQLRSVTAADTAVYYCARYGSGPFGGDYWGQGTLVTVSS
VL: DIQLTQSPSFLSASVGDRVTISCRASQGISSYLAWYQQKPGKAPKLLIYAASTLQGGVPSRFSGSGSGTTFTLTISSLQPEDFATYYCQQLNTYPFTFGPGTKLEIK
notes: Cys108Tyr (VH) variant of 5D12_18A4
B20: 38G11_28A2 (antibody, V domains shown)
VH: B6 VH with L29F, F31S, T35S, N56S, N59H, K72R, K77N, V79L, F80Y
VL: B19 VL with S22T, G56S, T70E, L91Y, N92S, T93F, P95S, F96H, P100Q
notes: Recombinant human antibody

Numbering of substitutions follows the chain as printed.

For this assay, the target named is T1, huIL1RAP ECD recombinant protein (human, UniProt Q9NPH3 21-367).
T1 construct: also called recombinant human IL1RAP-ECD; recombinant human IL1RAP; not shown: C-terminal histidine tag for purification
Kind of assay: Octet BLI, antibody on Protein A biosensor, recombinant huIL1RAP ECD. How it is done: Affinity: The affinity of antibodies to various recombinant IL1RAP protein was determined on an Octet Red™ instrument. After loading reagents into a 96-well plate, the Octet Red™ with Protein A-conjugated biosensors was programmed as follows: 30 seconds for baseline #1; 120 seconds to immobilize the antibody; 30 seconds for baseline #2; 300 seconds for association of antibody to recombinant IL1RAP; and 300-600 seconds for dissociation of recombinant IL1RAP from the antibody.
(In general: In BLI a coated tip is dipped into the sample, and binding shifts an interference pattern.)
As to B1, the dissociation constant (Kd) (in general, the constant that tells how readily two partners part at equilibrium) is 3 nM. Take B2: the equilibrium dissociation constant (Kd) stood at 3 nM. The result for B3 reads 19 nM; that for B4, 5 nM; that for B5, 7 nM.

With B6, the Kd was determined as 24 nM.

Turning to B7, the Kd stood at 23 nM. On to B8, for which the Kd was 0.2 nM. To B9 belongs 21 nM; to B10, 50 nM; to B11, 127 nM.

For B12, the dissociation constant (Kd) is 1 nM.

In the case of B13, the Kd amounted to 13 nM.

In the case of B14, the Kd turned out to be 2 nM. For B15, the Kd came out at 2 nM. The result for B16 reads 3 nM; that for B17, 3 nM; that for B18, 2 nM. Consider B19, for which the dissociation constant (Kd) was found to be 13 nM. As to B20, the dissociation constant (Kd) came to 29 nM.
